Results taken from patent US20240368250A1 (Ablynx, published 2024).
Where a chain is given by its changes, count along the chain named.

Assays:
[1] = molecular target: T1, Human serum albumin (HSA; Sigma-Aldrich Cat No. A8763) (human, UniProt P02768 25-609); experiment: SPR Biacore 8K+, HSA on CM5 chip, pH 7.4, 1:1 fit
[2] = molecular target: T2, Human FcRn (biotinylated human FcRn) (human, UniProt P61769 21-119); experiment: SPR Biacore 8K+, biotinylated hFcRn on SA chip (~1000-2000 RU), pH 6.0, no HSA, bivalent analyte fit (KD1)
T2 construct: Biotinylated human FcRn captured on a Series S Sensor Chip SA; also called human neonatal Fc receptor; hFcRn

[3] = molecular target: T2, Human FcRn (biotinylated human FcRn); experiment: SPR Biacore 8K+, biotinylated hFcRn on SA chip (~1000-2000 RU), pH 6.0, no HSA, bivalent analyte fit (ka1)
[4] = molecular target: T2, Human FcRn (biotinylated human FcRn); experiment: SPR Biacore 8K+, biotinylated hFcRn on SA chip (~1000-2000 RU), pH 6.0, with 30 uM HSA, bivalent analyte fit (KD1)
[5] = molecular target: T2, Human FcRn (biotinylated human FcRn); experiment: SPR Biacore 8K+, biotinylated hFcRn on SA chip (~1000-2000 RU), pH 6.0, with 30 uM HSA, bivalent analyte fit
[6] = molecular target: T2, Human FcRn (biotinylated human FcRn); experiment: SPR Biacore 8K+, biotinylated hFcRn on SA chip (~600 RU), pH 6.0, bivalent analyte fit (kd1)
[7] = molecular target: T2, Human FcRn (biotinylated human FcRn); experiment: SPR Biacore 8K+, biotinylated hFcRn on SA chip (~600 RU), pH 6.0, bivalent analyte fit (KD1)
[8] = molecular target: T2, Human FcRn (biotinylated human FcRn); experiment: SPR Biacore 8K+, biotinylated hFcRn on SA chip (~1000-2000 RU), pH 6.0, no HSA, bivalent analyte fit
[9] = molecular target: T1, Human serum albumin (HSA; Sigma-Aldrich …); experiment: SPR Biacore 8K+, HSA on CM5 chip, pH 6.0, 1:1 fit
[10] = molecular target: T2, Human FcRn (biotinylated human FcRn); experiment: SPR Biacore 8K+, biotinylated hFcRn on SA chip (~1000-2000 RU), pH 6.0, no HSA, bivalent analyte fit (kd1)
[11] = molecular target: T2, Human FcRn (biotinylated human FcRn); experiment: SPR Biacore 8K+, biotinylated hFcRn on SA chip (~600 RU), pH 6.0, bivalent analyte fit
[12] = molecular target: T3, Mouse serum albumin (MSA; Albumin Bioscience Cat No. 2601) (mouse, UniProt P07724 25-608); experiment: SPR Biacore 8K+, MSA on CM5 chip, pH 7.4, 1:1 fit
[13] = molecular target: T3, Mouse serum albumin (MSA; Albumin …); experiment: SPR Biacore 8K+, MSA on CM5 chip, pH 6.0, 1:1 fit
[14] = molecular target: T2, Human FcRn (biotinylated human FcRn); experiment: SPR Biacore 8K+, biotinylated hFcRn on SA chip (~1000-2000 RU), pH 6.0, no HSA, 1:1 fit
[15] = molecular target: T2, Human FcRn (biotinylated human FcRn); experiment: SPR Biacore 8K+, biotinylated hFcRn on SA chip (~1000-2000 RU), pH 6.0, with 30 uM HSA, bivalent analyte fit (kd1)
[16] = molecular target: T2, Human FcRn (biotinylated human FcRn); experiment: SPR Biacore 8K+, biotinylated hFcRn on SA chip (~1000-2000 RU), pH 6.0, with 30 uM HSA, bivalent analyte fit (ka1)
[17] = molecular target: T2, Human FcRn (biotinylated human FcRn); experiment: SPR Biacore 8K+, biotinylated hFcRn on SA chip (~600 RU), pH 6.0, bivalent analyte fit (ka1)
[18] = molecular target: T2, Human FcRn (biotinylated human FcRn); experiment: SPR Biacore 8K+, biotinylated hFcRn on SA chip (~1000-2000 RU), pH 6.0, with 30 uM HSA, bivalent analyte fit (kd1); remark: no good fit possible

B1: TP009 (Fc fusion)
chain 1: DVQLVESGGGLVQPGGSLRLSCAASGLTFSTNPMYWYRQAPGKQRELVASISSRGITNYADSVKGRFTISRDNSKNTVYLQMNSLRPEDTAVYYCRLASLSSGTVYWGQGTLVTVSSDKTHTCPPCPAPEAAGGPSVFLFPPKPKDTLMISRTPEVTCVVVDVSQEDPEVQFNWYVDGVEVHNAKTKPREEQFNSTYRVVSVLTVLHQDWLNGKEYKCKVSNKGLPSSIEKTISKAKGQPREPQVYTLPPCQEEMTKNQVSLWCLVKGFYPSDIAVEWESNGQPENNYKTTPPVLDSDGSFFLYSKLTVDKSRWQEGNVFSCSVMHEALHNHYTQKSLSLSLG
chain 2: DVQLVESGGGVVQPGGSLRLSCAASGFTFRSFGMSWVRQAPGKGPEWVSSISGSGSDTLYADSVKGRFTISRDNSKNTLYLQMNSLRPEDTALYYCTIGGSLSRSSQGTLVTVSSDKTHTCPPCPAPEAAGGPSVFLFPPKPKDTLMISRTPEVTCVVVDVSQEDPEVQFNWYVDGVEVHNAKTKPREEQFNSTYRVVSVLTVLHQDWLNGKEYKCKVSNKGLPSSIEKTISKAKGQPREPQVCTLPPSQEEMTKNQVSLSCAVKGFYPSDIAVEWESNGQPENNYKTTPPVLDSDGSFFLVSKLTVDKSRWQEGNVFSCSVMHEALHNHYTQKSLSLSLG
notes: IgG4 FALA Fc (knob-in-hole); irrelevant ISVD N-terminal on chain 1, ALB23002 N-terminal on chain 2
Binder B1 has a Kd [1] of 6.7 nM, a koff [1] of 0.0005 s⁻¹ and a kon [1] of 75000 M⁻¹ s⁻¹. It also gave a Kd [2] of 150 nM, a kon [3] of 240000 M⁻¹ s⁻¹ and a Kd [4] of 23 nM. The ka2 [5] was 0.0074 1/RUs, the kd2 [5] was 0.095 s⁻¹ and the koff [6] was 0.000344 s⁻¹. For the same binder, the Kd [7] was 15.1 nM, the ka2 [8] was 0.0013 1/RUs and the kd2 [8] was 0.018 s⁻¹. The Kd [9] was 2.7 nM, the koff [9] was 0.00037 s⁻¹ and the kon [9] was 140000 M⁻¹ s⁻¹. The koff [10] was 0.037 s⁻¹, the ka2 [11] was 0.917 1/RUs and the kd2 [11] was 10.2 s⁻¹. It also gave a Kd [12] of 21 nM, a koff [12] of 0.0026 s⁻¹ and a kon [12] of 130000 M⁻¹ s⁻¹. It also gave a Kd [13] of 13 nM, a koff [13] of 0.002 s⁻¹ and a kon [13] of 160000 M⁻¹ s⁻¹. The Kd [14] was 3 nM, the koff [14] was 0.0067 s⁻¹ and the kon [14] was 2.3e+06 M⁻¹ s⁻¹. The koff [15] was 0.0017 s⁻¹, the kon [16] was 75000 M⁻¹ s⁻¹ and the kon [17] was 22800 M⁻¹ s⁻¹.

B2: TP003 (Fc fusion)
chain 1: B1 chain 1
chain 2: B1 chain 1 with Y246C, C251S, W263S, L265A, Y304V
notes: IgG4 FALA Fc (knob-in-hole) with two N-terminal non-targeting ISVDs; also called control ISVD-Fc construct
Work on B2 yielded a Kd [2] of 39 nM, a kon [3] of 250000 M⁻¹ s⁻¹ and a Kd [4] of 77 nM. For the same binder, the ka2 [5] was 100 1/RUs, the kd2 [5] was 1900 s⁻¹ and the koff [6] was 0.000238 s⁻¹. The Kd [7] was 3.09 nM, the ka2 [8] was 0.15 1/RUs and the kd2 [8] was 2.4 s⁻¹. For the same binder, the koff [10] was 0.0098 s⁻¹, the ka2 [11] was 0.011 1/RUs and the kd2 [11] was 0.0329 s⁻¹. The Kd [14] was 3.6 nM, the koff [14] was 0.0017 s⁻¹ and the kon [14] was 460000 M⁻¹ s⁻¹. The koff [15] was 0.036 s⁻¹, the kon [16] was 470000 M⁻¹ s⁻¹ and the kon [17] was 77000 M⁻¹ s⁻¹.

B3: TP006 (Fc fusion)
chain 1: DVQLVESGGGLVQPGGSLRLSCAASGLTFSTNPMYWYRQAPGKQRELVASISSRGITNYADSVKGRFTISRDNSKNTVYLQMNSLRPEDTAVYYCRLASLSSGTVYWGQGTLVTVSSDKTHTCPPCPAPEAAGGPSVFLFPPKPKDTLMISRTPEVTCVVVDVSQEDPEVQFNWYVDGVEVHNAKTKPREEQFNSTYRVVSVLTVLHQDWLNGKEYKCKVSNKGLPSSIEKTISKAKGQPREPQVYTLPPCQEEMTKNQVSLWCLVKGFYPSDIAVEWESNGQPENNYKTTPPVLDSDGSFFLYSKLTVDKSRWQEGNVFSCSVMHEALHNHYTQKSLSLSLGGGGGSGGGGSGGGGSGGGGSGGGGSGGGGSGGGGSEVQLVESGGGVVQPGGSLRLSCAASGFTFRSFGMSWVRQAPGKGPEWVSSISGSGSDTLYADSVKGRFTISRDNSKNTLYLQMNSLRPEDTALYYCTIGGSLSRSSQGTLVTVSS
chain 2: DKTHTCPPCPAPEAAGGPSVFLFPPKPKDTLMISRTPEVTCVVVDVSQEDPEVQFNWYVDGVEVHNAKTKPREEQFNSTYRVVSVLTVLHQDWLNGKEYKCKVSNKGLPSSIEKTISKAKGQPREPQVCTLPPSQEEMTKNQVSLSCAVKGFYPSDIAVEWESNGQPENNYKTTPPVLDSDGSFFLVSKLTVDKSRWQEGNVFSCSVMHEALHNHYTQKSLSLSLG
notes: IgG4 FALA Fc (knob-in-hole); irrelevant ISVD N-terminal and ALB23002 C-terminal (35GS) on chain 1; chain 2 is hinge-Fc only
With B3 the Kd [1] was 67 nM, the koff [1] was 0.0017 s⁻¹ and the kon [1] was 26000 M⁻¹ s⁻¹. The Kd [2] was 290 nM, the kon [3] was 140000 M⁻¹ s⁻¹ and the koff [6] was 0.00402 s⁻¹. For the same binder, the Kd [7] was 426 nM, the ka2 [8] was 0.00013 1/RUs and the kd2 [8] was 0.002 s⁻¹. It also gave a koff [18] of 0.0016 s⁻¹, a Kd [9] of 32 nM and a koff [9] of 0.0017 s⁻¹. The kon [9] was 54000 M⁻¹ s⁻¹, the koff [10] was 0.042 s⁻¹ and the ka2 [11] was 10.7 1/RUs. The kd2 [11] was 71.9 s⁻¹, the Kd [12] was 120 nM and the koff [12] was 0.0028 s⁻¹. It also gave a kon [12] of 23000 M⁻¹ s⁻¹, a Kd [13] of 84 nM and a koff [13] of 0.0026 s⁻¹. For the same binder, the kon [13] was 31000 M⁻¹ s⁻¹, the Kd [14] was 18 nM and the koff [14] was 0.083 s⁻¹. It also gave a kon [14] of 4.5e+06 M⁻¹ s⁻¹ and a kon [17] of 9440 M⁻¹ s⁻¹.

B4: TP008 (Fc fusion)
chain 1: DVQLVESGGGLVQPGGSLRLSCAASGLTFSTNPMYWYRQAPGKQRELVASISSRGITNYADSVKGRFTISRDNSKNTVYLQMNSLRPEDTAVYYCRLASLSSGTVYWGQGTLVTVSSDKTHTCPPCPAPEAAGGPSVFLFPPKPKDTLMISRTPEVTCVVVDVSQEDPEVQFNWYVDGVEVHNAKTKPREEQFNSTYRVVSVLTVLHQDWLNGKEYKCKVSNKGLPSSIEKTISKAKGQPREPQVYTLPPCQEEMTKNQVSLWCLVKGFYPSDIAVEWESNGQPENNYKTTPPVLDSDGSFFLYSKLTVDKSRWQEGNVFSCSVMHEALHNHYTQKSLSLSLGGGGGSGGGGSGGGGSGGGGSGGGGSGGGGSGGGGSEVQLVESGGGLVQPGGSLRLSCAASGLTFSTNPMYWYRQAPGKQRELVASISSRGITNYADSVKGRFTISRDNSKNTVYLQMNSLRPEDTAVYYCRLASLSSGTVYWGQGTLVTVSS
chain 2: B3 chain 2
notes: IgG4 FALA Fc knob-in-hole
In the case of B4, the Kd [2] is reported as 75 nM, the kon [3] is reported as 270000 M⁻¹ s⁻¹ and the Kd [4] is reported as 190 nM. The ka2 [5] was 7.1 1/RUs, the kd2 [5] was 120 s⁻¹ and the koff [6] was 0.0198 s⁻¹. For the same binder, the Kd [7] was 6.1 nM, the ka2 [8] was 6.2e-05 1/RUs and the kd2 [8] was 0.0021 s⁻¹. For the same binder, the koff [10] was 0.02 s⁻¹, the ka2 [11] was 28.7 1/RUs and the kd2 [11] was 51.1 s⁻¹. The Kd [14] was 4.3 nM, the koff [14] was 0.0086 s⁻¹ and the kon [14] was 2e+06 M⁻¹ s⁻¹. It also gave a koff [15] of 0.047 s⁻¹, a kon [16] of 260000 M⁻¹ s⁻¹ and a kon [17] of 3.25e+06 M⁻¹ s⁻¹.
